According to patent publication US20160090427A1 (SAMSUNG ELECTRONICS, published 2016):

Experiments:
[1] = molecular target: T1, human c-Met/Fc fusion protein (R&D Systems) (human, UniProt P08581 25-932); test: SPR (Biacore T100), bispecific captured by human Fab binder on CM5 chip, c-Met-Fc injected
T1 construct: Bought reagent; also called c-Met-Fc (#358-MT/CF, R&D Systems); human c-Met/Fc protein; not shown: Fc part of the bought fusion protein
Method: An examination on whether the anti-c-Met/anti-VEGF bispecific antibody maintains binding affinity to c-Met was conducted using Biacore T100(GE). A human Fab binding agent (GE Healthcare) was immobilized onto a CM5 chip (#BR-1005-30, GE) according to the manufacturer's instructions. About 90˜120 RU of the anti-c-Met/anti-VEGF bispecific antibody was captured, and c-Met-Fc (#358-MT/CF, R&D Systems) was injected thereto at various concentrations. Then, 10 mM Glycine-HCl (pH 2.1) solution was injected thereto to regenerate the surface. The obtained data were fitted using BlAevaluation software (GE Healthcare, Biacore T100 evaluation software), to measure the binding affinity to c-Met.

VEGF (R&D systems) = VEGF (R&D systems) (UniProt P15692-4 27-191, limits assumed); test: SPR (Biacore T100), CM5 chip, VEGF; format unclear in the text
Method: An examination on whether the 8 anti-c-Met/anti-VEGF bispecific antibodies prepared in Example 2 maintains binding affinity to VEGF was conducted using Biacore T100(GE). VEGF (R&D systems) immobilized on the surface of CM5 chip (#BR-1005-30, GE) by amino coupling according to the manufacturer's instructions. About 90˜120 RU of the anti-c-Met/anti-VEGF bispecific antibody was captured, and […] was injected thereto at various concentrations. Then, a solution containing 1M NaCl and 5 mM NaOH was injected thereto to regenerate the surface. The obtained data were fitted using BlAevaluation software (GE Healthcare, Biacore T100 evaluation software), to measure the binding affinity to VEGF.

VEGF (R&D systems), sequence (P15692 other isoform, or with tags, fused parts or gaps limits assumed): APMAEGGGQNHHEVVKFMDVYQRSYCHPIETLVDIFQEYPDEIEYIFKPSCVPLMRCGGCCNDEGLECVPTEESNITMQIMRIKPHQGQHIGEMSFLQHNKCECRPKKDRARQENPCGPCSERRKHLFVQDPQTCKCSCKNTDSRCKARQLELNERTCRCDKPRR
T1 sequence (P08581 25-932 limits assumed): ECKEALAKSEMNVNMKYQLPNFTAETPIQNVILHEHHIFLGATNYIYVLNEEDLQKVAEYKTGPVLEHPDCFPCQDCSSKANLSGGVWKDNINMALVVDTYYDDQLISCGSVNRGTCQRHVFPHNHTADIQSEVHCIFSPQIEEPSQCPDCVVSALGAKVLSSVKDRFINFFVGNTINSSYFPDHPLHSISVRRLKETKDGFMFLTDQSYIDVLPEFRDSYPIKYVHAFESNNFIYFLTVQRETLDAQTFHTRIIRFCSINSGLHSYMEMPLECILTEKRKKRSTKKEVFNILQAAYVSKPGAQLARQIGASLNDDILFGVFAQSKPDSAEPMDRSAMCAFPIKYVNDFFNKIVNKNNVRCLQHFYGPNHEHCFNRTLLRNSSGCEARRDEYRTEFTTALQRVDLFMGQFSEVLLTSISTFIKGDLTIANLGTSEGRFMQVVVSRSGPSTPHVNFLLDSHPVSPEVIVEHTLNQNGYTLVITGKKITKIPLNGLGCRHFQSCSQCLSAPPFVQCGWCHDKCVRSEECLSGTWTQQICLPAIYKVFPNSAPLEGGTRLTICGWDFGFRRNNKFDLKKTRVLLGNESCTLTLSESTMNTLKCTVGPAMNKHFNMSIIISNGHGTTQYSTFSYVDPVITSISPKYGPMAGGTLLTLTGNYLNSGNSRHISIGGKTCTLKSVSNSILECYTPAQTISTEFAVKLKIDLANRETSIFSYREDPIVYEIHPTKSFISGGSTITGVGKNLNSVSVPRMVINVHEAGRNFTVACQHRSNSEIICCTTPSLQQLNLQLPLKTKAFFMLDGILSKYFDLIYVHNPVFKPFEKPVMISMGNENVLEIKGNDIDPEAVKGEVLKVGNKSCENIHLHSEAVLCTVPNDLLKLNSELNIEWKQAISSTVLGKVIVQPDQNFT

Row | Binder | Kd [1] | Kd (VEGF (R&D systems))
1 | MV-18 anti-c-Met/anti-VEGF bispecific antibody (bispecific antibody, human IgG2, kappa) heavy: EVQLVESGGGLVQPGGSLRLSCAASGFTFTDYYMSWVRQAPGKGLEWLGFIRNKANGYTTEYSASVKGRFTISRDNSKNTLYLQMNSLRAEDTAVYYCARDNWFAYWGQGTLVTVSSASTKGPSVFPLAPCSRSTSESTAALGCLVKDYFPEPVTVSWNSGALTSGVHTFPAVLQSSGLYSLSSVVTVPSSNFGTQTYTCNVDHKPSNTKVDKTVERKCCVECPPCPAPPVAGPSVFLFPPKPKDTLMISRTPEVTCVVVDVSHEDPEVQFNWYVDGVEVHNAKTKPREEQFNSTFRVVSVLTVVHQDWLNGKEYKCKVSNKGLPAPIEKTISKTKGQPREPQVYTLPPSREEMTKNQVSLTCLVKGFYPSDIAVEWESNGQPENNYKTTPPMLDSDGSFFLYSKLTVDKSRWQQGNVFSCSVMHEALHNHYTQKSLSLSPGKGGGGSGGGGSEVQLLESGGGLVQPGGSLRLSCAASGFTFSDYYMSWVRQAPGKGLEWVSAIYSGGGSIYYADSVKGRFTISRDNSKNTLYLQMNSLRAEDTAVYYCARDVQWNKAPRFDYWGQGTLVTVSSGGGGSGGGGSGGGGSQSVLTQPPSASGAPGQRVTISCSGSSSNIGSNDVSWYQQLPGTAPKLLIYADSNRPSGVPDRFSGSKSGTSASLAISGLRSEDEADYYCGSWDYSLSGYVFGGGTKLTVLG light: DIQMTQSPSSLSASVGDRVTITCKSSQSLLASGNQNNYLAWYQQKPGKAPKMLIIWASTRVSGVPSRFSGSGSGTDFTLTISSLQPEDFATYYCQQSYSRPYTFGQGTKVEIKRTVAAPSVFIFPPSDEQLKSGTASVVCLLNNFYPREAKVQWKVDNALQSGNSQESVTEQDSKDSTYSLSSTLTLSKADYEKHKVYACEVTHQGLSSPVTKSFNRGEC | 0.05 nM | 4.23 nM
2 | MV-20 anti-c-Met/anti-VEGF bispecific antibody (bispecific antibody, human IgG2, kappa) heavy: EVQLVESGGGLVQPGGSLRLSCAASGFTFTDYYMSWVRQAPGKGLEWLGFIRNKANGYTTEYSASVKGRFTISRDNSKNTLYLQMNSLRAEDTAVYYCARDNWFAYWGQGTLVTVSSASTKGPSVFPLAPCSRSTSESTAALGCLVKDYFPEPVTVSWNSGALTSGVHTFPAVLQSSGLYSLSSVVTVPSSNFGTQTYTCNVDHKPSNTKVDKTVERKCCVECPPCPAPPVAGPSVFLFPPKPKDTLMISRTPEVTCVVVDVSHEDPEVQFNWYVDGVEVHNAKTKPREEQFNSTFRVVSVLTVVHQDWLNGKEYKCKVSNKGLPAPIEKTISKTKGQPREPQVYTLPPSREEMTKNQVSLTCLVKGFYPSDIAVEWESNGQPENNYKTTPPMLDSDGSFFLYSKLTVDKSRWQQGNVFSCSVMHEALHNHYTQKSLSLSPGKGGGGSGGGGSEVQLLESGGGLVQPGGSLRLSCAASGFTFSNYDMSWVRQAPGKGLEWVSLISHGGGNIYYADSVKGRFTISRDNSKNTLYLQMNSLRAEDTAVYYCARVPVMCTNHWCSYANGMDVWGQGTLVTVSSGGGGSGGGGSGGGGSQSVLTQPPSASGTPGQRVIISCSASSSNIGSNAVYWYQQLPGTAPKLLIYSDNQRPSGVPDRFSGSKSGTSASLAISGLRSEDEADYYCGSWDYSLSAYVFGGGTKLTVLG light: DIQMTQSPSSLSASVGDRVTITCKSSQSLLASGNQNNYLAWYQQKPGKAPKMLIIWASTRVSGVPSRFSGSGSGTDFTLTISSLQPEDFATYYCQQSYSRPYTFGQGTKVEIKRTVAAPSVFIFPPSDEQLKSGTASVVCLLNNFYPREAKVQWKVDNALQSGNSQESVTEQDSKDSTYSLSSTLTLSKADYEKHKVYACEVTHQGLSSPVTKSFNRGEC | 0.04 nM | 4.43 nM
3 | MV-19 anti-c-Met/anti-VEGF bispecific antibody (bispecific antibody, human IgG2, kappa) heavy: EVQLVESGGGLVQPGGSLRLSCAASGFTFTDYYMSWVRQAPGKGLEWLGFIRNKANGYTTEYSASVKGRFTISRDNSKNTLYLQMNSLRAEDTAVYYCARDNWFAYWGQGTLVTVSSASTKGPSVFPLAPCSRSTSESTAALGCLVKDYFPEPVTVSWNSGALTSGVHTFPAVLQSSGLYSLSSVVTVPSSNFGTQTYTCNVDHKPSNTKVDKTVERKCCVECPPCPAPPVAGPSVFLFPPKPKDTLMISRTPEVTCVVVDVSHEDPEVQFNWYVDGVEVHNAKTKPREEQFNSTFRVVSVLTVVHQDWLNGKEYKCKVSNKGLPAPIEKTISKTKGQPREPQVYTLPPSREEMTKNQVSLTCLVKGFYPSDIAVEWESNGQPENNYKTTPPMLDSDGSFFLYSKLTVDKSRWQQGNVFSCSVMHEALHNHYTQKSLSLSPGKGGGGSGGGGSEVQLLESGGGLVQPGGSLRLSCAASGFTFSSYSMSWVRQAPGKGLEWVSGISHGGGNKYYADSVKGRFTISRDNSKNTLYLQMNSLRAEDTAVYYCARDLRANNDTGFDYWGQGTLVTVSSGGGGSGGGGSGGGGTQSVLTQPPSSSGTPGQRVTISCTGSSSNIGSNAVTWYQQLPGTAPKLLIYDDNHRPSGVPDRFSGSKSGTSASLAISGLRSEDEADYYCGAWDYSLNAYVFGGGTKLTVLG light: DIQMTQSPSSLSASVGDRVTITCKSSQSLLASGNQNNYLAWYQQKPGKAPKMLIIWASTRVSGVPSRFSGSGSGTDFTLTISSLQPEDFATYYCQQSYSRPYTFGQGTKVEIKRTVAAPSVFIFPPSDEQLKSGTASVVCLLNNFYPREAKVQWKVDNALQSGNSQESVTEQDSKDSTYSLSSTLTLSKADYEKHKVYACEVTHQGLSSPVTKSFNRGEC | 0.3 nM | 1 nM
4 | MV-21 anti-c-Met/anti-VEGF bispecific antibody (bispecific antibody, human IgG2, kappa) heavy: EVQLVESGGGLVQPGGSLRLSCAASGFTFTDYYMSWVRQAPGKGLEWLGFIRNKANGYTTEYSASVKGRFTISRDNSKNTLYLQMNSLRAEDTAVYYCARDNWFAYWGQGTLVTVSSASTKGPSVFPLAPCSRSTSESTAALGCLVKDYFPEPVTVSWNSGALTSGVHTFPAVLQSSGLYSLSSVVTVPSSNFGTQTYTCNVDHKPSNTKVDKTVERKCCVECPPCPAPPVAGPSVFLFPPKPKDTLMISRTPEVTCVVVDVSHEDPEVQFNWYVDGVEVHNAKTKPREEQFNSTFRVVSVLTVVHQDWLNGKEYKCKVSNKGLPAPIEKTISKTKGQPREPQVYTLPPSREEMTKNQVSLTCLVKGFYPSDIAVEWESNGQPENNYKTTPPMLDSDGSFFLYSKLTVDKSRWQQGNVFSCSVMHEALHNHYTQKSLSLSPGKGGGGSGGGGSEVQLLESGGGLVQPGGSLRLSCAASGFTFSGYAMSWVRQAPGKGLEWVSGISHDGGNTYYADSVKGRFTISRDNSKNTLYLQMNSLRAEDTAVYYCARDRRKGPSTEFDYWGQGTLVTVSSGGGGSGGGGSGGGGSQSVLTQPPSLSGTPGQRVTISCTGSSSNIGSNSVSWYQQLPGTAPKLLIYDDNNRPSGVPDRFSGSKSGTSASLAISGLRSEDEADYYCGAWDYSLSAYVFGGGTKLTVLG light: DIQMTQSPSSLSASVGDRVTITCKSSQSLLASGNQNNYLAWYQQKPGKAPKMLIIWASTRVSGVPSRFSGSGSGTDFTLTISSLQPEDFATYYCQQSYSRPYTFGQGTKVEIKRTVAAPSVFIFPPSDEQLKSGTASVVCLLNNFYPREAKVQWKVDNALQSGNSQESVTEQDSKDSTYSLSSTLTLSKADYEKHKVYACEVTHQGLSSPVTKSFNRGEC | 0.04 nM | 8.27 nM
